US20040033229A1 (published 2004)

Biological target: prostate specific membrane antigen (PSMA), full-length, on the cell surface (human, UniProt Q04609 1-750)
Test: cell-based or functional assay

Chain of prostate specific membrane antigen (PSMA), full-length, on the cell surface (Q04609 whole entry): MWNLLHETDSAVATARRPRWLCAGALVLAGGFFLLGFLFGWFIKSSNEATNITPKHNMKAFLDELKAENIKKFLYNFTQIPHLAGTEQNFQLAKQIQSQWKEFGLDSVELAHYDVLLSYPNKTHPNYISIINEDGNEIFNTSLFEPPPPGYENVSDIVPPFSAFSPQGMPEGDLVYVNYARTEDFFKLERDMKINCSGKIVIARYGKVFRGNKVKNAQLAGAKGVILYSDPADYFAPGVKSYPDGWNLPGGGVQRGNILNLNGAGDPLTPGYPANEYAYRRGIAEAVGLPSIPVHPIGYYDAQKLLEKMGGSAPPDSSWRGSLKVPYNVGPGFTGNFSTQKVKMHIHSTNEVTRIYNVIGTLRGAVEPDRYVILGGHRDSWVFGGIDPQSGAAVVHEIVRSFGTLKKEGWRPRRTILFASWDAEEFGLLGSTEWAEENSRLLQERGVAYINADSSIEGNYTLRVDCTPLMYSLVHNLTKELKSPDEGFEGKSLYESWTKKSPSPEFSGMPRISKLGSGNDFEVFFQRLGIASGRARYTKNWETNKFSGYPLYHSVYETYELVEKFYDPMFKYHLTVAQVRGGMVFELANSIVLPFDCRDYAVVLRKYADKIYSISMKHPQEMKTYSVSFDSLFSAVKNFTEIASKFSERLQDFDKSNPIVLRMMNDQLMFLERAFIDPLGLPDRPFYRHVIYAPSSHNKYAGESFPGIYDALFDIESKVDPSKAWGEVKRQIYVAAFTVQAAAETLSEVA

B1: 225Ac labeled mAb 026 (antibody, V domains shown)
VH: QVQLVESGGGVVQPGRSLRLSCAASGFTFSNYVMHWVRQAPGKGLEWVAIIWYDGSNKYYADSVKGRFTISRDNSKNTLYLQMNSLRAEDTAVYYCAGGYNWNYEYHYYGMDVWGQGTTVTVSS
VL: DIQMTQSPSSLSASVGDRVTITCRASQGITNYLAWFQQKPGKAPKSLIYAASSLQSGVPSKFSGSGSGTDFSLTISSLQPEDFATYYCQQYNSYPITFGQGTRLEIK
modifications: 225Ac-DOTA conjugate, sites not stated; 225Ac-DOTA conjugate, sites not stated ; 225Ac chelated by DOTA and conjugated to the antibody; sites not stated
  IC50 of cell survival (3H thymidine incorporation), C4-2 cells: 0.12 nCi/mL
  IC50 of cell survival, C4-2 and LNCaP cells: < 1 nCi/mL
  selectivity of killing, C4-2 against PC3: > 50 fold
